Assay results published in patent publication US7183387 (Genentech, dated 2007).
Blank lines part the entries; values can stand above or below the binder they belong to.

Assays:
[1] = biological target: T1, human FcγRIIA-Arg131 α subunit extracellular domain-His6-GST fusion (human, UniProt P12318 34-217); test: hexamer ELISA
T1 construct: extracellular domain; also called FcγRIIA-R131; not shown: glutathione S transferase (GST)
T1 sequence: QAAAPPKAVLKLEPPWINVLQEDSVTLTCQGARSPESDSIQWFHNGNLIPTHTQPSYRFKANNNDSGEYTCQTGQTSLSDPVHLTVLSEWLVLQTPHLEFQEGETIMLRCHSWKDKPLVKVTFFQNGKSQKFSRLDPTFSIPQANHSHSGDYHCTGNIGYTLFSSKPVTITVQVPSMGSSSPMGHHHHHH

[2] = biological target: T2, human FcγRIIB α subunit extracellular domain-His6-GST fusion (human, UniProt P31994 43-217); test: hexamer ELISA
T2 construct: extracellular domain; also called CD32; not shown: glutathione S transferase (GST)
T2 sequence: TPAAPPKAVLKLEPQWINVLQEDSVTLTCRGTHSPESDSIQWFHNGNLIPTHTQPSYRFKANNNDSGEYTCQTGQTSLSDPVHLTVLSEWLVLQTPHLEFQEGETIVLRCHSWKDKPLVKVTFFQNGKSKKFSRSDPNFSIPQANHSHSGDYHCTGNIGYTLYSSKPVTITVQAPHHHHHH

[3] = biological target: T3, human FcγRIIIA-Phe158 α subunit extracellular domain-His6-GST fusion (human, UniProt P08637 17-208); test: hexamer ELISA
T3 construct: extracellular domain; also called FcγRIIIA-F158; CD16; not shown: glutathione S transferase (GST)
T3 sequence (P08637 other isoform, or with tags, fused parts or gaps): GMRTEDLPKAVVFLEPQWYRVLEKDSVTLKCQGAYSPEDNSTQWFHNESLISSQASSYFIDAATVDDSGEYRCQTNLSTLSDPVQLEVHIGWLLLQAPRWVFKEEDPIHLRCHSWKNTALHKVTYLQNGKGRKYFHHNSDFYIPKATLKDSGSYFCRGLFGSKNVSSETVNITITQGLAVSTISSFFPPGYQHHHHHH

[4] = biological target: T4, human neonatal Fc receptor (FcRn), biotinylated (human, UniProt P55899 24-297; P61769 21-119, biotinylated (biotin-X-NHS)); test: FcRn ELISA, pH 6.0;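 note: Streptavidin-captured FcRn plates, IgG variants titrated 2 h at pH 6.0, peroxidase anti-human IgG read at 450 nm, variant over standard concentration at the standard curve mid-point absorbance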
T4 construct: captured on streptavidin plates
Method: FcRn Binding ELISA: For measuring FcRn binding activity of IgG variants, ELISA plates were coated with 2 µg/ml streptavidin (Zymed, South San Francisco) in 50 mM carbonate buffer, pH 9.6, at 4° C. overnight and blocked with PBS-0.5% BSA, pH 7.2 at room temperature for one hour. Biotinylated FcRn (prepared using biotin-X-NHS from Research Organics, Cleveland, Ohio and used at 1–2 µg/ml) in PBS-0.5% BSA, 0.05% polysorbate 20, pH 7.2, was added to the plate and incubated for one hour. Two fold serial dilutions of IgG standard (1.6–100 ng/ml) or variants in PBS-0.5% BSA, 0.05% polysorbate 20, pH 6.0, were added to the plate and incubated for two hours. Bound IgG was detected using peroxidase labeled goat F(ab')_2 anti-human IgG F(ab')_2 in the above pH 6.0 buffer (Jackson ImmunoResearch, West Grove, Pa.) followed by 3,3',5,5'-tetramethyl benzidine (Kirgaard & Perry Laboratories) as the substrate. Plates were washed between steps with PBS-0.05% TWEEN 20® at either pH 7.2 or 6.0. Absorbance was read at 450 nm on a Vmax plate reader (Molecular Devices, Menlo Park, Calif.). Titration curves were fit with a four-parameter nonlinear regression curve-fitting program (KaleidaGraph, Synergy software, Reading, Pa.). Concentrations of IgG variants corresponding to the mid-point absorbance of the titration curve of the standard were calculated and then divided by the concentration of the standard corresponding to the mid-point absorbance of the standard titration curve.

[5] = biological target: T5, human FcγRIA α subunit extracellular domain-His6-GST fusion (human, UniProt P12314 16-292); test: FcγRI ELISA and THP-1 cells, averaged
T5 construct: extracellular domain; also called GST-FcγRIA; CD64; not shown: glutathione S transferase (GST)
T5 sequence (P12314 other isoform, or with tags, fused parts or gaps): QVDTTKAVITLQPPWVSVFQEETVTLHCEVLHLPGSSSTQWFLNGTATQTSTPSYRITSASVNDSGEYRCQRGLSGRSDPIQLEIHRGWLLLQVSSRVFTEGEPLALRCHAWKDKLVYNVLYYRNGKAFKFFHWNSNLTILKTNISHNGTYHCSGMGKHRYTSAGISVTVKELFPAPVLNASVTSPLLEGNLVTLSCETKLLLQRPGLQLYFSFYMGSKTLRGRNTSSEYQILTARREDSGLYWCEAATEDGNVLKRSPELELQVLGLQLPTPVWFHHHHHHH

[6] = biological target: T6, human FcγRIIA-R131 α subunit extracellular domain-6His-GST fusion (human, UniProt P12318 34-217); test: ELISA, IgG:IgE hexamers on receptor-GST
T6 construct: also called FcγRIIA-Arg131; not shown: glutathione S-transferase (GST)
T6 sequence: T1 sequence

[7] = biological target: T7, human FcγRIIB α subunit extracellular domain-6His-GST fusion (human, UniProt P31994 43-217); test: ELISA, IgG:IgE hexamers on receptor-GST
T7 construct: not shown: glutathione S-transferase (GST)
T7 sequence: T2 sequence

[8] = biological target: T8, human FcγRIIIA-F158 α subunit extracellular domain-6His-GST fusion (human, UniProt P08637 17-208); test: ELISA, IgG:IgE hexamers on receptor-GST
T8 construct: also called FcγRIIIA-Phe158; not shown: glutathione S-transferase (GST)
T8 sequence (P08637 other isoform, or with tags, fused parts or gaps, form in doubt): as the sequence (P08637 other isoform, or with tags, fused parts or gaps) above

ratio to native IgG1 [6]: 0.89 | ratio to native IgG1 [7]: 0.73 | ratio to native IgG1 [8]: 0.76
B2: E27 IgG1 variant V303(322)L (antibody)
heavy: not shown
light: DIQLTQSPSSLSASVGDRVTITCRASKPVDGEGDSYLNWYQQKPGKAPKLLIYAASYLESGVPSRFSGSGSGTDFTLTISSLQPEDFATYYCQQSHEDPYTFGQGTKVEIKRTVAAPSVFIFPPSDEQLKSGTASVVCLLNNFYPREAKVQWKVDNALQSGNSQESVTEQDSKDSTYSLSSTLTLSKADYEKHKVYACEVTHQGLSSPVTKSFNRGEC
notes: also called IG2 150

ratio to native IgG1 [1]: 1.4 ratio | ratio to native IgG1 [2]: 1.45 ratio | ratio to native IgG1 [3]: 1.19 ratio | ratio to native IgG1 [4]: 1.32 ratio | ratio to native IgG1 [5]: 1.06 ratio
B3: anti-IgE E27 IgG1 Ala378Gln (antibody)
heavy: not shown
light: B2 light

ratio to native IgG1 [1]: 1.3 ratio | ratio to native IgG1 [2]: 1.59 ratio | ratio to native IgG1 [3]: 0.98 ratio | ratio to native IgG1 [4]: 0.59 ratio | ratio to native IgG1 [5]: 0.99 ratio
B9: anti-IgE E27 IgG1 Arg255Ala (antibody)
heavy: not shown
light: B2 light

ratio to native IgG1 [6]: 0.64 | ratio to native IgG1 [7]: 0.34 | ratio to native IgG1 [8]: 0.2
B11: E27 IgG1 variant V303(322)T (antibody)
heavy: not shown
light: B2 light

ratio to native IgG1 [1]: 0.27 ratio | ratio to native IgG1 [2]: 0.17 ratio | ratio to native IgG1 [3]: 0.89 ratio | ratio to native IgG1 [4]: 0.81 ratio | ratio to native IgG1 [5]: 0.95 ratio
B13: anti-IgE E27 IgG1 Arg292Ala (antibody)
heavy: not shown
light: B2 light
notes: also called R292(309)A

ratio to native IgG1 [1]: 1.03 ratio | ratio to native IgG1 [2]: 1.02 ratio | ratio to native IgG1 [3]: 1.02 ratio | ratio to native IgG1 [4]: 1.25 ratio | ratio to native IgG1 [5]: 1 ratio
B15: anti-IgE E27 IgG1 Gln362Ala (antibody)
heavy: not shown
light: B2 light
notes: also called Gln362A1a

ratio to native IgG1 [6]: 0.86 | ratio to native IgG1 [7]: 0.79 | ratio to native IgG1 [8]: 0.84
B16: E27 IgG1 variant T335(354)Q (antibody)
heavy: not shown
light: B2 light
notes: also called IG2 171

ratio to native IgG1 [1]: 1.34 ratio | ratio to native IgG1 [2]: 1.6 ratio | ratio to native IgG1 [3]: 1.09 ratio | ratio to native IgG1 [4]: 0.82 ratio | ratio to native IgG1 [5]: 1.04 ratio
B17: anti-IgE E27 IgG1 Asp280Ala (antibody)
heavy: not shown
light: B2 light

ratio to native IgG1 [6]: 1.24 | ratio to native IgG1 [7]: 1.3 | ratio to native IgG1 [8]: 1.19
B18: E27 IgG1 variant T335(354)E (antibody)
heavy: not shown
light: B2 light
notes: also called IG2 194

ratio to native IgG1 [6]: 1.19 | ratio to native IgG1 [7]: 1.14 | ratio to native IgG1 [8]: 1.3
B21: E27 IgG1 variant T335(354)K (antibody)
heavy: not shown
light: B2 light
notes: also called IG2 195

ratio to native IgG1 [1]: 1.11 ratio | ratio to native IgG1 [2]: 1.19 ratio | ratio to native IgG1 [3]: 0.92 ratio | ratio to native IgG1 [4]: 1.62 ratio | ratio to native IgG1 [5]: 0.93 ratio
B23: anti-IgE E27 IgG1 Gln311Ala (antibody)
heavy: not shown
light: B2 light

ratio to native IgG1 [1]: 0.8 ratio | ratio to native IgG1 [2]: 0.68 ratio | ratio to native IgG1 [3]: 0.55 ratio | ratio to native IgG1 [4]: 1.45 ratio | ratio to native IgG1 [5]: 1 ratio
B24: anti-IgE E27 IgG1 Asp376Ala (antibody)
heavy: not shown
light: B2 light

ratio to native IgG1 [6]: 0.9 | ratio to native IgG1 [7]: 0.81 | ratio to native IgG1 [8]: 0.92
B25: E27 IgG1 variant Y296(313)H (antibody)
heavy: not shown
light: B2 light

Continued, binder first:

B1: anti-IgE E27 IgG1 Ala327Gln (antibody)
heavy: not shown
light: B2 light
ratio to native IgG1 [1]: 0.13 ratio | ratio to native IgG1 [2]: 0.14 ratio | ratio to native IgG1 [3]: 0.06 ratio | ratio to native IgG1 [4]: 0.97 ratio | ratio to native IgG1 [5]: 0.6 ratio

B4: anti-IgE E27 IgG1 Ala327Gly (antibody)
heavy: not shown
light: B2 light
ratio to native IgG1 [1]: 0.92 ratio | ratio to native IgG1 [2]: 0.83 ratio | ratio to native IgG1 [3]: 0.36 ratio | ratio to native IgG1 [5]: 0.96 ratio

B5: anti-IgE E27 IgG1 Arg301Ala (antibody)
heavy: not shown
light: B2 light
ratio to native IgG1 [1]: 1.14 ratio | ratio to native IgG1 [2]: 1.29 ratio | ratio to native IgG1 [3]: 0.22 ratio | ratio to native IgG1 [4]: 0.86 ratio | ratio to native IgG1 [5]: 1.06 ratio

B6: anti-IgE E27 IgG1 Gln295Ala (antibody)
heavy: not shown
light: B2 light
notes: also called Q295(312)A
ratio to native IgG1 [1]: 0.62 ratio | ratio to native IgG1 [2]: 0.5 ratio | ratio to native IgG1 [3]: 0.25 ratio | ratio to native IgG1 [4]: 0.79 ratio | ratio to native IgG1 [5]: 1 ratio

B7: E27 IgG1 variant Y296(313)W (antibody)
heavy: not shown
light: B2 light
notes: also called IG2 186
ratio to native IgG1 [6]: 0.96 | ratio to native IgG1 [7]: 0.93 | ratio to native IgG1 [8]: 1.38

B8: anti-IgE E27 IgG1 Asn286Ala (antibody)
heavy: not shown
light: B2 light
ratio to native IgG1 [1]: 1.24 ratio | ratio to native IgG1 [2]: 1.36 ratio | ratio to native IgG1 [3]: 1.05 ratio | ratio to native IgG1 [4]: 1.24 ratio | ratio to native IgG1 [5]: 0.95 ratio

B10: anti-IgE E27 IgG1 Asn315Ala (antibody)
heavy: not shown
light: B2 light
ratio to native IgG1 [1]: 1.15 ratio | ratio to native IgG1 [2]: 1.3 ratio | ratio to native IgG1 [3]: 1.07 ratio | ratio to native IgG1 [4]: 0.76 ratio | ratio to native IgG1 [5]: 0.99 ratio

B12: anti-IgE E27 IgG1 Asp312Ala (antibody)
heavy: not shown
light: B2 light
ratio to native IgG1 [1]: 1.2 ratio | ratio to native IgG1 [2]: 1.19 ratio | ratio to native IgG1 [3]: 1.23 ratio | ratio to native IgG1 [4]: 1.5 ratio | ratio to native IgG1 [5]: 1.01 ratio

B14: anti-IgE E27 IgG1 Ala339Thr (antibody)
heavy: not shown
light: B2 light
ratio to native IgG1 [1]: 1.09 ratio | ratio to native IgG1 [2]: 1.2 ratio | ratio to native IgG1 [3]: 1.34 ratio | ratio to native IgG1 [5]: 1.06 ratio

B19: anti-IgE E27 IgG1 Asn297Ala (antibody)
heavy: not shown
light: B2 light
notes: removes the Asn-linked glycosylation site
ratio to native IgG1 [1]: 0.05 ratio | ratio to native IgG1 [2]: 0.1 ratio | ratio to native IgG1 [3]: 0.03 ratio | ratio to native IgG1 [4]: 0.8 ratio

B20: anti-IgE E27 IgG1 Asp265Ala (antibody)
heavy: not shown
light: B2 light
notes: also called G14 D265A
ratio to native IgG1 [1]: 0.07 ratio | ratio to native IgG1 [2]: 0.13 ratio | ratio to native IgG1 [3]: 0.09 ratio | ratio to native IgG1 [4]: 1.23 ratio | ratio to native IgG1 [5]: 0.16 ratio

B22: anti-IgE E27 IgG1 Asn276Ala (antibody)
heavy: not shown
light: B2 light
ratio to native IgG1 [1]: 1.29 ratio | ratio to native IgG1 [2]: 1.34 ratio | ratio to native IgG1 [3]: 0.95 ratio | ratio to native IgG1 [4]: 1.15 ratio | ratio to native IgG1 [5]: 1.05 ratio

B26: anti-IgE E27 IgG1 Ala327Ser (antibody)
heavy: not shown
light: B2 light
ratio to native IgG1 [1]: 0.23 ratio | ratio to native IgG1 [2]: 0.22 ratio | ratio to native IgG1 [3]: 0.06 ratio | ratio to native IgG1 [5]: 0.86 ratio
